For data set [1], the system named is HeLa Kyoto. The data set can be described thus: solubility in G1/S (NP-40 vs SDS abundance) (log2 ratio); higher = more soluble. The following applies: cell cycle stage: G1/S.
Data set [2] concerns HeLa Kyoto. Kind of data set: melting temperature (median over replicates), in situ; higher = more thermally stable.
Data set [3] has as its system HeLa Kyoto. Kind of data set: solubility change mitosis vs G1/S (difference of NP-40 vs SDS log2 ratios) (log2 ratio difference); higher = more soluble in mitosis.
Data set [4] deals with HeLa Kyoto. Kind of data set: thermal stability score vs G1/S (z-score of summed log2 fold changes over temperatures); higher = more thermally stable than in G1/S.
[5] abbreviates: cell cycle stage: early G1 (4.5 h after nocodazole release).
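Wherever melting temperature (median over replicates), in situ is given: HeLa Kyoto cells synchronized by double thymidine or nocodazole block, proteins quantified by TMT10plex mass spectrometry, three independent biological replicates.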
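Wherever solubility change mitosis vs G1/S (difference of NP-40 vs SDS log2 ratios) is given: synchronized HeLa Kyoto cells (double thymidine block for G1/S, nocodazole release for mitosis), protein amounts in NP-40 versus SDS lysates quantified by mass spectrometry, three biological replicates.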
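Wherever solubility in G1/S (NP-40 vs SDS abundance) is given: HeLa Kyoto cells arrested at G1/S by double thymidine block, proteins quantified by TMT10plex mass spectrometry in mild NP-40 versus SDS extracts, three biological replicates.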
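Wherever thermal stability score vs G1/S (z-score of summed log2 fold changes over temperatures) is given: synchronized HeLa Kyoto cells, proteins quantified by TMT10plex mass spectrometry, three biological replicates, mitosis taken 0.5 h after nocodazole release, G1/S directly after double thymidine block.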

AGAP3, sequence (chain, as listed by the source): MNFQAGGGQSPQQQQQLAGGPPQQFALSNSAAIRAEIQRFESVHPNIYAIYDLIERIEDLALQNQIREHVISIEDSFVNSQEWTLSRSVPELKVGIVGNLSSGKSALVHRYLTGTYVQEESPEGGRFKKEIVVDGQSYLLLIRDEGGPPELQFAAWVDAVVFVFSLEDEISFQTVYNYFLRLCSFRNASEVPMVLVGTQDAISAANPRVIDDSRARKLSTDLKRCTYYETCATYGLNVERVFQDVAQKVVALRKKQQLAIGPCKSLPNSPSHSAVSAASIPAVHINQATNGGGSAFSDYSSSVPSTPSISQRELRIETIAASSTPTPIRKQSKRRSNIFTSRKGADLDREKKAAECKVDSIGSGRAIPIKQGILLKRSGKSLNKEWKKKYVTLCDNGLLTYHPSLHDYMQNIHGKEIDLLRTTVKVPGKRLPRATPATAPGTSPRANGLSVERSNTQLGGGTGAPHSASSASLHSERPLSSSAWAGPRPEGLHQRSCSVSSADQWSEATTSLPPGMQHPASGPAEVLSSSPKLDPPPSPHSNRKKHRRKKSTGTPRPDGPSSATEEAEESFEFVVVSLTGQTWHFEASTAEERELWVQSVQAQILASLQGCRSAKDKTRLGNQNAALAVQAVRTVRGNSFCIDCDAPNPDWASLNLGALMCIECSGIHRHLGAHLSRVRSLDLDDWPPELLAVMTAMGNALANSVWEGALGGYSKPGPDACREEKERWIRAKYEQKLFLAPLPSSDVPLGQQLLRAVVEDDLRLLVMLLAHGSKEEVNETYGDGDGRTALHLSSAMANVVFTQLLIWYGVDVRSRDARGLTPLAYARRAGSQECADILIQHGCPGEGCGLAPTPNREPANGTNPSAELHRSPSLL

For the substance “MPGKLLWGDIMELEAPLEESESQKKERQKSDRRKSRHHYDSDEKSETRENGVTDDLDAPKAKKSKMKEKLNGDTEEGFNRLSDEFSKSHKSRRKDLPNGDIDEYEKKSKRVSSLDTSTHKSSDNKLEETLTREQKEGAFSNFPISEETIKLLKGRGVTYLFPIQVKTFGPVYEGKDLIAQARTGTGKTFSFAIPLIERLQRNQETIKKSRSPKVLVLAPTRELANQVAKDFKDITRKLSVACFYGGTSYQSQINHIRNGIDILVGTPGRIKDHLQSGRLDLSKLRHVVLDEVDQMLDLGFAEQVEDIIHESYKTDSEDNPQTLLFSATCPQWVYKVAKKYMKSRYEQVDLVGKMTQKAATTVEHLAIQCHWSQRPAVIGDVLQVYSGSEGRAIIFCETKKNVTEMAMNPHIKQNAQCLHGDIAQSQREITLKGFREGSFKVLVATNVAARGLDIPEVDLVIQSSPPQDVESYIHRSGRTGRAGRTGICICFYQPRERGQLRYVEQKAGITFKRVGVPSTMDLVKSKSMDAIRSLASVSYAAVDFFRPSAQRLIEEKGAVDALAAALAHISGASSFEPRSLITSDKGFVTMTLESLEEIQDVSCAWKELNRKLSSNAVSQITRMCLLKGNMGVCFDVPTTESERLQAEWHDSDWILSVPAKLPEIEEYYDGNTSSNSRQRSGWSSGRSGRSGRSGGRSGGRSGRQSRQGSRSGSRQDGRRRSGNRNRSRSGGHKRSFD [DDX50]”, the “solubility in G1/S (log2)” value with HeLa Kyoto [1] was -1.4. The same substance gave a melting temperature in the data set on HeLa Kyoto [2] (cell cycle stage: mitosis) of 50.4 °C. Besides, in the data set with HeLa Kyoto [3], the “solubility change mitosis (log2)” value came out at 0.879. The thermal stability score with HeLa Kyoto [4] (setting [5]) was 1.27; with HeLa Kyoto [4] (cell cycle stage: mitosis), 2.08.

Regarding “MAERAALEELVKLQGERVRGLKQQKASAELIEEEVAKLLKLKAQLGPDESKQKFVLKTPKGTRDYSPRQMAVREKVFDVIIRCFKRHGAEVIDTPVFELKETLMGKYGEDSKLIYDLKDQGGELLSLRYDLTVPFARYLAMNKLTNIKRYHIAKVYRRDNPAMTRGRYREFYQCDFDIAGNFDPMIPDAECLKIMCEILSSLQIGDFLVKVNDRRILDGMFAICGVSDSKFRTICSSVDKLDKVSWEEVKNEMVGEKGLAPEVADRIGDYVQQHGGVSLVEQLLQDPKLSQNKQALEGLGDLKLLFEYLTLFGIDDKISFDLSLARGLDYYTGVIYEAVLLQTPAQAGEEPLGVGSVAAGGRYDGLVGMFDPKGRKVPCVGLSIGVERIFSIVEQRLEALEEKIRTTETQVLVASAQKKLLEERLKLVSELWDAGIKAELLYKKNPKLLNQLQYCEEAGIPLVAIIGEQELKDGVIKLRSVTSREEVDVRREDLVEEIKRRTGQPLCIC [HARS]”, in the data set on HeLa Kyoto [1], the “solubility in G1/S (log2)” value is 0.354. For the same substance, the melting temperature in the data set on HeLa Kyoto [2] (cell cycle stage: G1/S) came to 53.5 °C; in the data set on HeLa Kyoto [2] (cell cycle stage: mitosis), 53 °C. The “solubility change mitosis (log2)” value with HeLa Kyoto [3] was -0.113. In addition, the thermal stability score in the data set with HeLa Kyoto [4] (setting [5]) came out at 5.06; with HeLa Kyoto [4] (cell cycle stage: mitosis), 4.5.

Consider AGAP3, for which, in the data set with HeLa Kyoto [1], the “solubility in G1/S (log2)” value came out at 0.259. Besides, the melting temperature with HeLa Kyoto [2] (cell cycle stage: G1/S) was found to be 49.3 °C; with HeLa Kyoto [2] (cell cycle stage: mitosis), 49.9 °C. Also, the “solubility change mitosis (log2)” value in the data set on HeLa Kyoto [3] was -0.0465. In addition, the results for the thermal stability score in the data set with HeLa Kyoto [4] (setting [5]) and with HeLa Kyoto [4] (cell cycle stage: mitosis) were 0.047 and 0.315, respectively.

Turning to “MRSAAKPWNPAIRAGGHGPDRVRPLPAASSGMKSSKSSTSLAFESRLSRLKRASSEDTLNKPGSTAASGVVRLKKTATAGAISELTESRLRSGTGAFTTTKRTGIPAPREFSVTVSRERSVPRGPSNPRKSVSSPTSSNTPTPTKHLRTPSTKPKQENEGGEKAALESQVRELLAEAKAKDSEINRLRSELKKYKEKRTLNAEGTDALGPNVDGTSVSPGDTEPMIRALEEKNKNFQKELSDLEEENRVLKEKLIYLEHSPNSEGAASHTGDSSCPTSITQESSFGSPTGNQMSSDIDEYKKNIHGNALRTSGSSSSDVTKASLSPDASDFEHITAETPSRPLSSTSNPFKSSKCSTAGSSPNSVSELSLASLTEKIQKMEENHHSTAEELQATLQELSDQQQMVQELTAENEKLVDEKTILETSFHQHRERAEQLSQENEKLMNLLQERVKNEEPTTQEGKIIELEQKCTGILEQGRFEREKLLNIQQQLTCSLRKVEEENQGALEMIKRLKEENEKLNEFLELERHNNNMMAKTLEECRVTLEGLKMENGSLKSHLQGEKQKATEASAVEQTAESCEVQEMLKVARAEKDLLELSCNELRQELLKANGEIKHVSSLLAKVEKDYSYLKEICDHQAEQLSRTSLKLQEKASESDAEIKDMKETIFELEDQVEQHRAVKLHNNQLISELESSVIKLEEQKSDLERQLKTLTKQMKEETEEWRRFQADLQTAVVVANDIKCEAQQELRTVKRKLLEEEEKNARLQKELGDVQGHGRVVTSRAAPPPVDEEPESSEVDAAGRWPGVCVSRTSPTPPESATTVKSLIKSFDLGRPGGAGQNISVHKTPRSPLSGIPVRTAPAAAVSPMQRHSTYSSVRPASRGVTQRLDLPDLPLSDILKGRTETLKPDPHLRKSPSLESLSRPPSLGFGDTRLLSASTRAWKPQSKLSVERKDPLAALAREYGGSKRNALLKWCQKKTQGYANIDITNFSSSWSDGLAFCALLHTYLPAHIPYQELNSQEKKRNLLLAFEAAESVGIKPSLELSEMLYTDRPDWQSVMQYVAQIYKYFET [SPECC1]”, the “solubility in G1/S (log2)” value in the data set with HeLa Kyoto [1] stood at 0.148. Besides, the melting temperature in the data set with HeLa Kyoto [2] (cell cycle stage: G1/S) amounted to 52.2 °C; in the data set with HeLa Kyoto [2] (cell cycle stage: mitosis) it was 51.5 °C. Also, the “solubility change mitosis (log2)” value with HeLa Kyoto [3] is -0.147. Also, the thermal stability score was -1.45 in the data set with HeLa Kyoto [4] (setting [5]) and -1.95 with HeLa Kyoto [4] (cell cycle stage: mitosis).

On to “MQSTSNHLWLLSDILGQGATANVFRGRHKKTGDLFAIKVFNNISFLRPVDVQMREFEVLKKLNHKNIVKLFAIEEETTTRHKVLIMEFCPCGSLYTVLEEPSNAYGLPESEFLIVLRDVVGGMNHLRENGIVHRDIKPGNIMRVIGEDGQSVYKLTDFGAARELEDDEQFVSLYGTEEYLHPDMYERAVLRKDHQKKYGATVDLWSIGVTFYHAATGSLPFRPFEGPRRNKEVMYKIITGKPSGAISGVQKAENGPIDWSGDMPVSCSLSRGLQVLLTPVLANILEADQEKCWGFDQFFAETSDILHRMVIHVFSLQQMTAHKIYIHSYNTATIFHELVYKQTKIISSNQELIYEGRRLVLEPGRLAQHFPKTTEENPIFVVSREPLNTIGLIYEKISLPKVHPRYDLDGDASMAKAITGVVCYACRIASTLLLYQELMRKGIRWLIELIKDDYNETVHKKTEVVITLDFCIRNIEKTVKVYEKLMKINLEAAELGEISDIHTKLLRLSSSQGTIETSLQDIDSRLSPGGSLADAWAHQEGTHPKDRNVEKLQVLLNCMTEIYYQFKKDKAERRLAYNEEQIHKFDKQKLYYHATKAMTHFTDECVKKYEAFLNKSEEWIRKMLHLRKQLLSLTNQCFDIEEEVSKYQEYTNELQETLPQKMFTASSGIKHTMTPIYPSSNTLVEMTLGMKKLKEEMEGVVKELAENNHILERFGSLTMDGGLRNVDCL [TBK1]”, for which, in the data set with HeLa Kyoto [1], the “solubility in G1/S (log2)” value is -0.00961. Further, the melting temperature with HeLa Kyoto [2] (cell cycle stage: G1/S) and with HeLa Kyoto [2] (cell cycle stage: mitosis) was 48.6 °C throughout. Also, the “solubility change mitosis (log2)” value in the data set with HeLa Kyoto [3] is -0.105. Further, the thermal stability score worked out at 0.969 in the data set on HeLa Kyoto [4] (setting [5]) and 1.43 in the data set on HeLa Kyoto [4] (cell cycle stage: mitosis).

The values are drawn from the supplement of paper PMC5998384.
